Test results published in the DeepSol protein solubility set.

Test: soluble on expression in E. coli; label from the status in PepcDB or PDB records

Row | Sequence | soluble on expression in E. coli
1 | MSLENKFARTVLGDIPVEKLGITDCHDHFIKNGGPEVEEHIDFLMLNVDASIKEFKEFIDRGGSTIVTMDPPNVGRDVLKTLEIANAVKNLGGNVIMSTGFHKAKFYDKYSSWLAVVPTEEIVKMCVAEIEEGMDEYNYNGPVVKRSKAKAGIIKAGTGYGAIDRLELKALEVAARTSILTGCPILVHTQLGTMALEVAKHLIGFGANPDKIQISHLNKNPDKYYYEKVIKETGVTLCFDGPDRVKYYPDSLLAENIKYLVDKGLQKHITLSLDAGRILYQRNYGLTKGKQTFGLAYLFDRFLPLLKQVGVSKEAIFDILVNNPKRVLAFDEKRNFDPLKVSKEVLELKKELNLNEGHHHHHH | soluble
2 | REIADNTYIVLGTMTLNDFNEYFETDLESDNVDTIAGFYLTGVGTIPSQEEKEHFEVESNGKHLELINDKVKDGRVTKLKILVSE | soluble
3 | MSLRDESRLDKYVIKEILRINRHLPRRRKTLEELLREERPHVVNRDGTKHYFDRDELERLADILPRYLHGRLKLPILIELGYSGAAVIRGKAEVRVVCEVLGEEWRFSQDRVELNMLDVRKLRREFPTATQYMFSTEYIMGRPKVERREGHHHHHH | soluble
4 | MKTGKELKPGTVIRLENDPWLVQKAEFTKSGRNSAIMKTKLKNLLTGYKTEIVYSADDKLDDVILDRKEATLSFISGDTYTFMDTTDYTMYELNAEDIESVLPFVEEGMTDVCEAVFFDERLVSVELPTTIVRQVDYTEGSARGDTSGKVMKPAKLKNGTELSVADFIEIGDMIEIDTREGGSYKGRAKLEHHHHHH | not soluble
5 | AHHHHHHGSEKQGEKMKRLGKVLHYAKQGFLIVRTNWVPSLNDRVVDKRLQFVGIVKDVFGPVKMPYVAIKPKVSNPEIYVGEVLYVDERKRKESPKKNKEKRMKKKKRLNR | not soluble
6 | MGHHHHHHSHMAGEKAQKKGKEKWKEKTWYTVESPPYLGSKEVTVALGEDPESMVNRIVEVPISDLTGNFKKSNEKALFRITGCEGTKCKTIFIGHYIGDDYIRRLVRRRKERIDIIEDVKTSDGSIITVKIVVVSDGKLTNTKKSEIRKALTSFIVSKGSQLSYADFVRYLIGDDSYNDMVEATKNIYPLRKIEIRKSELVSLSGMQEPQKNEPAPGGEAIAQN | not soluble
7 | MKTLLTSATLLVTTLSTPLMAKEADIQSLVNAAQKEGQVYSVGMPGSWANWKDTWNDLNKLYGLKHQDTDMSSAQEIAKFAAEKNNATADIGDIGFAFARVAVKKGVTQAYKPTTWDSIPDWAKDKDGHWALAYTGTISFISNNKLVKNPPTSWDDLLEGNYKVSVGDVGVAAQANNAVLAAAFAKGGDESNLKPAIKFFAELAKQGRLSYTDPGLANLEKGEVEVALLWDFNALNYRDKLGRDRFSVNIPQDGSVISGYTTIINKFAKNPNSAKLAREYIFSDQGQINLAEGYARPIRSDVVLPQSIQDKLIPNDQYTNVQPVSDFKAWEKSARKLPRQWQENVLINQQ | not soluble
8 | VADSASTVTNEFSADHPFIYVIRHVDGKILFVGRYSSPTTN | soluble
9 | MGSDKIHHHHHHMNKVTINPQIQLTYQIEGKGDPIILLHGLDGNLAGFEDLQHQLASSYKVLTYDLRGHGKSSKSESYDLNDHVEDLKILMEKLNIHEAHILGHDLGGVVAKLFTDKYAYRVKSLTTIASKKDDLIHSFTQLLIQYQDDIAGFNKSEAYILLFSKLFRNQEKTMKWYQKQRIYSIKSEDDSAVAIRSLILHKDEPMYLKKRTCVPTLLINGEHDPLIKDKNHFKLEAHFLNVTKKIFEHSGHAPHIEEPEAFMNYYLNFLKSVS | not soluble
10 | MSLIRFRFVDDHRTDYSVKRMCTVLGLNRSSYYKWKASSAQRHRRLVDDAILGAKVQAIFDDKKQLYGAKRIAAELTFNDAYSSTGPVNHKRIARIMRKLQLRGYTKKRKVTTTQRERHRFIFADLVKRNFTAPAANRILVGDITYLPIADGSNMYLASVIDCYSRMLVGFAIADHMRTDLVEEALEHARRTRGSLSGAIFHSDHGSVYTSSQFQAVCRRLNVTQSMGAVGSSADNSLAESFNAALKREVLKDQKVFSNQLVCRRDVFAWCARYNTTRRHSWCKYLTPIEYESHASEGHHHHHH | not soluble
11 | SEEDRRLWMEAMDGREPVYNSNKDNQSEGTAQLDSIGFSIIKKCIHAVETRGINEQGLYRIVGVNSRVQKLLSILMDPKTATETETEICAEWEIKTITSALKTYLRMLPGPLMMYQFQRSFIKAAKLENQESRVSEIHSLVHRLPEKNRQMLHLLMNHLAKVADNHKQNLMTVANLGVVFGPTLLRPQEETVAAIMDIKFQNIVIEILIENHEKIFNTVPETPPSNSQLLL | soluble
